The values below are quoted from earlier work in US6660905B1, “Mice comprising engrafted functional human hepatocytes” (The Board of Trustees of the Leland Stanford Junior …, priority 1999, dated 2003).

HGF: human hepatocyte growth factor: the half-life result was “on the order of minutes”.
